How the values were obtained:
[1] = biological target: C1q Receptor in the complement system (rabbit serum complement) (rabbit); assay: cell-based or functional assay
[2] = biological target: FcγIIIA Receptor on the effector cells (UniProt P08637 17-254, limits assumed); assay: cell-based or functional assay
FcγRIIIa 158V receptor = biological target: T1, FcγRIIIa 158V receptor (human, UniProt P08637 17-208, limits assumed); assay: SPR, receptor amine-coupled to the chip
T1 construct: in the Octet assay part of a 'Human Fc receptor panel' loaded on Anti-Penta His biosensors, so probably His-tagged; also called FcγRIIIA V158
Protocol: (§1) The method follows a direct binding assay methodology where the FcγRIIIa receptor is directly immobilized onto the flow cell on a sensor chip surface and samples are injected over the chip to assess binding. […] Independent duplicates of sample dilutions are injected over the chip, followed by surface regeneration between each cycle. The binding is measured in response units (RU). The kinetics of the binding reaction is determined by measuring changes in SPR due to the increase in mass in the close proximity to the biosensor chip surface. Change in the mass of the complex as a function of time is visualized as a sensorgram.
(§2) The equilibrium dissociation constants (K_D) of each sample is determined for each receptor.

FcγRIIIa 158F receptor = biological target: T2, FcγRIIIa 158F receptor (human, UniProt P08637 17-208, limits assumed); assay: SPR, receptor amine-coupled to the chip
T2 construct: in the Octet assay part of a 'Human Fc receptor panel' loaded on Anti-Penta His biosensors, so probably His-tagged; also called FcγRIIIA F158
Protocol: as §1, §2

Sequence of FcγIIIA Receptor on the effector cells (P08637 17-254 limits assumed): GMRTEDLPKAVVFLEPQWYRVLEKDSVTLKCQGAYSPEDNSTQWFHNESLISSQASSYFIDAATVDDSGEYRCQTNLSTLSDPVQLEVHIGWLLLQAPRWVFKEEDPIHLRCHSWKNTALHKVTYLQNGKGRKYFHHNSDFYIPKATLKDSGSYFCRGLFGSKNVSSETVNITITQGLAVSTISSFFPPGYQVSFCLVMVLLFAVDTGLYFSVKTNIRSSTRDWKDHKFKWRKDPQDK
T1 sequence (P08637 17-208 F176V limits assumed): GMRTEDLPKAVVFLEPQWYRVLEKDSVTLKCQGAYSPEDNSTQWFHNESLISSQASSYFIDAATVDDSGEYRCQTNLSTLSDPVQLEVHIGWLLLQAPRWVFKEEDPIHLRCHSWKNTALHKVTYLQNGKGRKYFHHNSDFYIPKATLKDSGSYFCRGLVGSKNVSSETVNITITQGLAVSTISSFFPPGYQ
T2 sequence (P08637 17-208 limits assumed): as the sequence (P08637 17-208 F176V limits assumed) above, with V160F counted along it

CDC EC50 (Jeko-1 cells, rabbit serum) [1]: 670 ng/mL
ADCC EC50, fold lower than OCREVUS ® [2]: ~25 fold
fold higher affinity than OCREVUS® (FcγRIIIa 158V receptor): ~15 fold
fold higher affinity than OCREVUS® (FcγRIIIa 158F receptor): ~10 fold
B1: TG-1101 (TG Therapeutics, Inc.) (antibody, human IgG1, kappa)
heavy: not shown
light: QIVLSQSPAILSASPGEKVTMTCRASSSVSYMHWYQQKPGSSPKPWIYATSNLASGVPARFSGSGSGTSYSFTISRVEAEDAATYYCQQWTFNPPTFGGGTRLEIKRTVAAPSVFIFPPSDEQLKSGTASVVCLLNNFYPREAKVQWKVDNALQSGNSQESVTEQDSKDSTYSLSSTLTLSKADYEKHKVYACEVTHQGLSSPVTKSFNRGEC
notes: Chimeric IgG1 made in rat YB2/0 cells, low-fucose N-glycan profile; also called ublituximab; UBX

Source: patent US11807689 (TG THERAPEUTICS, dated 2023)
